Source: patent EP4702992A1, “ANTIBODY-DRUG CONJUGATE” (priority 2023, dated 2024)

Legend:
[1] = biological target: DLL3 on the surface of NCI-H209, SHP77, NCI-H526, NCI-H82 and NCI-H69 cells (human) (UniProt Q9NYJ7); assay: flow cytometry, D-ADC55-1-8 (15 µg/mL) on SHP77 cells, anti-human IgG Alexa Fluor 488
[2] = biological target: DLL3 on the surface of NCI-H209, SHP77, NCI-H526, NCI-H82 and NCI-H69 cells (human) (UniProt Q9NYJ7); assay: flow cytometry, D-ADC55-1-8 (15 µg/mL) on NCI-H69 cells, anti-human IgG Alexa Fluor 488
[3] = biological target: DLL3 on the surface of NCI-H209, SHP77, NCI-H526, NCI-H82 and NCI-H69 cells (human) (UniProt Q9NYJ7); assay: flow cytometry, D-ADC55-1-8 (15 µg/mL) on NCI-H82 cells, anti-human IgG Alexa Fluor 488
[4] = biological target: DLL3 on the surface of NCI-H209, SHP77, NCI-H526, NCI-H82 and NCI-H69 cells (human) (UniProt Q9NYJ7); assay: flow cytometry, D-ADC55-1-8 (15 µg/mL) on NCI-H209 cells, anti-human IgG Alexa Fluor 488
[5] = biological target: DLL3 on the surface of NCI-H209, SHP77, NCI-H526, NCI-H82 and NCI-H69 cells (human) (UniProt Q9NYJ7); assay: flow cytometry, D-ADC55-1-8 (15 µg/mL) on NCI-H526 cells, anti-human IgG Alexa Fluor 488

Chain of DLL3 on the surface of NCI-H209, SHP77, NCI-H526, NCI-H82 and NCI-H69 cells (human) (Q9NYJ7 27-618): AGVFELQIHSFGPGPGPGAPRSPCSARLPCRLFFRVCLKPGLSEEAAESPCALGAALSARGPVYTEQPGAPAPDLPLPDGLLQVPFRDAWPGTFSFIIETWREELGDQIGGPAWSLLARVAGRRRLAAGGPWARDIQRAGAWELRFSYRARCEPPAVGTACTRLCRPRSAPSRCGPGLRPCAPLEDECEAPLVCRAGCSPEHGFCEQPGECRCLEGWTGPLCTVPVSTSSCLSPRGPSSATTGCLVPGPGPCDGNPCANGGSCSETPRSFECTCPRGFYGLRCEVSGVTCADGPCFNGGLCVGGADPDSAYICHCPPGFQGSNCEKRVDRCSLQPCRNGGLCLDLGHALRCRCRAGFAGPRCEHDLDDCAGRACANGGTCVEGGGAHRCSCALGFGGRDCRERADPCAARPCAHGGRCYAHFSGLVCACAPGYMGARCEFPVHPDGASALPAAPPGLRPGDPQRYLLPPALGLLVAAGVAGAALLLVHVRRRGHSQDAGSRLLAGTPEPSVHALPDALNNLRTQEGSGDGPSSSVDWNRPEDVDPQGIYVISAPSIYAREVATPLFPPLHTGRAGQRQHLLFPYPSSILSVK

DLL3+ % [1]: 35.8%
Experimental well: negative control ratio [1]: 3.23
DLL3+ % [2]: 5.29%
Experimental well: negative control ratio [2]: 3.03
DLL3+ % [3]: 11.2%
Experimental well: negative control ratio [3]: 5.02
DLL3+ % [4]: 44.4%
Experimental well: negative control ratio [4]: 7.73
DLL3+ % [5]: 29.1%
Experimental well: negative control ratio [5]: 3.73
B1: D-ADC55-1-8 (antibody, human IgG1, kappa, L234A L235A, V domains shown)
VH: QVQLVQSGAEVKKPGASVKVSCKASGYTFTDYYMKWVRQAPGQRLEWMGAFNLNNGDTFYNQKFKGRVTITRDTSASTAYMELSSLRSEDTAVYYCARDVYGYGDYWGQGTSVTVSS
VL: DIVMTQSPDSLAVSLGERATINCRASKSVSTSGYSYMHWYQQKPGQPPKLLIYLASNLDSGVPDRFSGSGSGTDFTLTISSLQAEDVAVYYCQHSRELPYTFGGGTKLEIKR
modifications: linker-drug LD55-1 (exatecan payload) conjugated to sulfhydryls of reduced interchain disulfide cysteines; average DAR 8.0 per antibody
